What was measured:
[1] = target: mouse chitinase 3-like-1 (mChi3l1) with C-terminal Avitag and His tag (Mus musculus, UniProt Q61362); test: BLI
[2] = target: human chitinase 3-like-1 (hChi3l1) with C-terminal Avitag and His tag (Homo sapiens, UniProt P36222); test: BLI
Sequence of human chitinase 3-like-1 (hChi3l1) with C-terminal Avitag and His tag (P36222 22-383): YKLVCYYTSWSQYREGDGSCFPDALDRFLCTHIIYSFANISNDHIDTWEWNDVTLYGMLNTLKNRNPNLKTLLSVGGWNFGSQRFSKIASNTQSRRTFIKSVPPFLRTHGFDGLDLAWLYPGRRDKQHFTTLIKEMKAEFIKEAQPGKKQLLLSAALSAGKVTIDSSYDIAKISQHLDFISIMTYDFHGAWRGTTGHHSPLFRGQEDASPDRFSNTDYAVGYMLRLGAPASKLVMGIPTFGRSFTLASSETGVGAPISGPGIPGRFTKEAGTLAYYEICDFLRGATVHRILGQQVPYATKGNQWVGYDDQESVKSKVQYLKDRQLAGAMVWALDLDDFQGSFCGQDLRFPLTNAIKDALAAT

Sequence of mouse chitinase 3-like-1 (mChi3l1) with C-terminal Avitag and His tag (Q61362 30-389): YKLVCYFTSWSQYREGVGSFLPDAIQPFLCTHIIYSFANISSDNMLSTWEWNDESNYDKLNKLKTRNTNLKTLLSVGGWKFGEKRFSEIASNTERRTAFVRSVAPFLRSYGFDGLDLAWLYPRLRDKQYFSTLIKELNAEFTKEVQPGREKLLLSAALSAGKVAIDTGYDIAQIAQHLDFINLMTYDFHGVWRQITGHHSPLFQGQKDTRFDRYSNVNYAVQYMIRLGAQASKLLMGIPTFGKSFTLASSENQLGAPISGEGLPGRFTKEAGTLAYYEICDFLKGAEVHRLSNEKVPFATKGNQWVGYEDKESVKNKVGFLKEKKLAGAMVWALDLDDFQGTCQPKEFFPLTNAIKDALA

Kd [1]: 7 nM
Kd [2]: 9 nM
B1: humanized C59, second version (hC59): hC59-1 with the S67F reverse mutation in the kappa chain FR3 (antibody, V domains shown)
VH: EVQLVESGGGLVQPGGSLRLSCAASGFTISSDYYMCWVRQAPGKGLEWIGCIYIGSGTDTYYASWAKGRFTISRHNSKNTLYLQMNSLRAEDTAVYYCARDKGWSNAWGFYFQLWGQGTLVTVSS
VL: DIQMTQSPSSLSASVGDRVTITCQASQSIGKYLNWYQQKPGKAPKLLIYSSSSLASGVPSRFSGSGFGTDFTLTISSLQPEDFATYYCQQGYSYVDLENGFGGGTKVEI

Reference: article PMC9847341 (Antibody Therapeutics, 2022)
